According to US12390535B2, “Method of making oral dosage forms” (UNIVERSITÄT HEIDELBERG, priority 2018, dated 2025):

Test: Zetasizer measurement of zeta potential of liposomes
Assay type: physicochemical
Settings: CPP coupled after liposome preparation, eight equivalents relative to first lipid (FIG. 1)
Method: The zeta potential can be determined by methods known in the art. The zeta potential may be determined after dilution of the liposomes to a lipid concentration of 0.95 mg/ml using a 50 mM phosphate buffer with a pH of 7.4. The default settings of the automatic mode of the Zetasizer Nano ZS from Malvern™ (Malvern Instruments Ltd., Worcestershire, United Kingdom) can be chosen as follows: number of measurements=3; run duration=10 s; number of runs=10; equilibration time=60 s; refractive index solvent 1.330; refractive index polystyrene cuvette 1.590; viscosity=0.8872 mPa s; temperature=25° C.; dielectric constant=78.5 F/m; backscattering mode (173°); automatic voltage selection; Smoluchowski equation.
The particle size, PDI and zeta potential of all liposomal formulations were determined at room temperature using a zetasizer Nano ZS from Malvern™ (Malvern Instruments Ltd., Worcestershire, United Kingdom). Size and PDI were measured after dilution to a lipid concentration of 0.076 mg/ml with a 10 mM phosphate buffer with a pH of 7.4 using the automatic mode. The zeta potential was determined after dilution to a lipid concentration of 0.95 mg/ml by a 50 mM phosphate buffer with a pH of 7.4. […]

Sequence: RRRRRRRRRC (cyclo(RRRRRRRRRC); also: coupled to liposomes) [R9C, here coupled to liposomes after their preparation]
- zeta potential: only slightly positive
